Laboratory results reported in patent US8871909B2, “Antibodies inhibiting c-Met dimerization and uses thereof” (Pierre Fabre Medicament, priority 2007, dated 2014).

B1: 11E1: murine anti-c-Met monoclonal antibody, IgG1 kappa; heavy chain SEQ ID No. 62, light chain SEQ ID No. 63 (antibody, V domains shown)
VH: QVQLQQSGAELAKPGASVKMSCKASGYTFTSYWMNWVKQRPGQGLEWIGYINPTTGSTDYNQKLKDKATLTADKSSNTAYMQLSSLTSEDSAVYYCAIGGYGSWFAYWGQGTLVTVSA
VL: QIVLTQSPAIMSASPGEKVTLTCSASSSVSSTYLYWYQQKPGSSPKLWIYTTSILASGVPARFSGSGSGTSYSLTISSMETEDAASYFCHQWSSYPFTFGSGTKLDIK
modifications: mus musculus
B2: 223C4: murine anti-c-Met monoclonal antibody, IgG1 kappa; heavy chain SEQ ID No. 20, light chain SEQ ID No. 23 (antibody, V domains shown)
VH: EVLLQQSGPELVKPGASVKIPCKASGYTFTDYNMDWVKQSHGMSLEWIGDINPNNGGTIFNQKFKGKATLTVDKSSSTAYMELRSLTSEDTAVYYCARGRYVGYYYAMDYWGQGTSVTVSS
VL: DIQMTQSPASLSVSVGETVTITCRASENIYSNLAWYQQKQGKSPQLLVYAATNLVDGVPSRFSGSGSGTQYSLKINSLQSEDFGSYYCQHFWGPPYTFGGGTKLEIK
modifications: mus musculus
B3: 224G11: murine anti-c-Met monoclonal antibody, IgG1 kappa; heavy chain SEQ ID No. 18, light chain SEQ ID No. 21 (antibody, V domains shown)
VH: EVQLQQSGPELVKPGASVKISCKTSGYIFTAYTMHWVRQSLGESLDWIGGIKPNNGLANYNQKFKGKATLTVDKSSSTAYMDLRSLTSEDSAVYYCARSEITTEFDYWGQGTALTVSS
VL: DIVLTQSPASLAVSLGQRATISCRASESVDSYANSFMHWYQQKPGQPPKLLIYRASNLESGIPARFSGSGSRTDFTLTINPVEADDVATYYCQQSKEDPLTFGSGTKLEMK
modifications: mus musculus

Assays:
A549 cells = test: Matrigel invasion assay with A549 cells; type: cell-based; conditions: A549, Mab 10 μg/ml, basal (no HGF)
Experimental: To evaluate the inhibiting effect of the anti-c-Met antibodies on the invasion process, A549 cells were plated in the upper chamber of BD BioCoat™ Matrigel™ invasion chambers (6.5 mm diameter wells with 8-μm pre size polycarbonate membranes). A459 cells were starved 24 hours before performing the invasion assay. Then 500 000 A549 cells were plated in chemotaxis buffer (DMEM medium, 0.1% BSA, 12 mM Hepes) in the upper well of each chamber, upon the Matrigel coating either with or without the antibody to be tested (final Mab concentration 10 μg/ml). After 1 hour incubation of the plates at 37° C. with 5% CO2, the lower chambers were filled with either growth medium containing 400 ng/ml of rhHGF or with growth medium alone. The chambers were incubated for 48 additional hours at 37° C. with 5% CO2. At the end of this incubation time, cells that remained on upper surface of the filter were gently removed with a cotton swab, cells that migrated to the lower surface of the filter were lysed, stained with CyQuant GR dye buffer (Invitrogen) and counted using a fluorescence reader Berthold Mithras LB940. All conditions were tested as triplicates.

SEMA domain = molecular target: T1, SEMA domain (Homo sapiens, UniProt P08581); test: ELISA recognition of recombinant SEMA domain; type: binding
T1 construct: the recombinant c-Met-Fc protein and the recombinant SEMA domain
T1 sequence (P08581 27-515 limits assumed): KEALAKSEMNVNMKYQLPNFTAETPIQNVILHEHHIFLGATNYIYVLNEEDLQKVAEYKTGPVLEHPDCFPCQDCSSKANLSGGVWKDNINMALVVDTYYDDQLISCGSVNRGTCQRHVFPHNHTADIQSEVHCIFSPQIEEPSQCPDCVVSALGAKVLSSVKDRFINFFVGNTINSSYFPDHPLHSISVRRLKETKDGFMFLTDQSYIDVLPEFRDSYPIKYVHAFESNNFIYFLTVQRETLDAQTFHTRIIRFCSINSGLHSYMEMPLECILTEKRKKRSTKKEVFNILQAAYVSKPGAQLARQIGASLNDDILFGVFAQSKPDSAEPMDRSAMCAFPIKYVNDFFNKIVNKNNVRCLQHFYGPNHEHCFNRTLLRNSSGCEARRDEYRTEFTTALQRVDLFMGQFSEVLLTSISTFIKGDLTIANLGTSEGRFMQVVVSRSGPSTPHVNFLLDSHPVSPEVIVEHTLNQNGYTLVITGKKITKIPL
Experimental: To characterize the pattern of recognition of the 3 selected antibodies, 3 ELISA have been set up with the recombinant c-Met protein, its monomeric fragment (obtained by cleavage of the recombinant c-Met-Fc protein and the recombinant SEMA domain.
To perform these ELISA the human dimeric c-Met protein (R&D sytems, cat#358MT) is coated at the concentration of 0.7 μg/ml in PBS overnight at 4° C. After saturation of the plates (Costar #3690) with a 0.5% gelatin solution 2 hours at 37° C., hybridoma supernatants are incubated 1 hour at 37° C. Once rinsed with PBS, the anti-mouse HRP-antibody (Jackson ImmunoResearch, catalog #115-035-164) is added to each well at a 1/5000 dilution in ELISA buffer (0.1% gelatin/0.05% Tween 20 in PBS) and the plates incubated for 1 hour at 37° C. […] The reaction is left to occur for 5 min at room temperature. The reaction is stopped by the addition of 50 μl/well of a 1 M H2SO4 solution and read on a plate reader at 450 nm. The same kind of protocol was performed on monomeric c-Met and SEMA domain but in that cases proteins were coated at 5 and 3 μg/ml respectively.

BxPC3 cells = test: In vitro inhibition of BxPC3 proliferation ([3H]thymidine incorporation); type: cell-based; conditions: BxPC3, in absence of ligand, antibody alone
Experimental: For that purpose 50 000 BxPC3 cells were plated in 96 well plates in RPMI medium, 2 mM L. Glutamine, without SVF. […] After 3 days, cells were pulsed with 0.5 μCi of [^3H]thymidine for 16 hours. The magnitude of [^3H]thymidine incorporated into trichloroacetic acid-insoluble DNA was quantified by liquid scintillation counting. Results were expressed as raw data to really evaluate the intrinsic agonistic effect of each Mab (FIGS. 2A and 2B).

c-Met = test: BRET analysis of c-Met dimerization on c-Met transfected CHO cells; type: cell-based; conditions: CHO cells expressing C-Met-Rluc and C-Met-K1100A-YFP, supernatants
Chain of c-Met (P08581 25-307 limits assumed): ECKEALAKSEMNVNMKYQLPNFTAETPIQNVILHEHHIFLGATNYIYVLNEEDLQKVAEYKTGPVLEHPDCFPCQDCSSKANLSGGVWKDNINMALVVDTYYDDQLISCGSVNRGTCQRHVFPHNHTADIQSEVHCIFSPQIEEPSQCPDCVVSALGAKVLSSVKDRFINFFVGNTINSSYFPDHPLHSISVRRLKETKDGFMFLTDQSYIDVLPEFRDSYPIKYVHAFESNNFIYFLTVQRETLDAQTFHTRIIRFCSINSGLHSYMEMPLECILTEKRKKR
Chain of c-Met (P08581 308-932 limits assumed): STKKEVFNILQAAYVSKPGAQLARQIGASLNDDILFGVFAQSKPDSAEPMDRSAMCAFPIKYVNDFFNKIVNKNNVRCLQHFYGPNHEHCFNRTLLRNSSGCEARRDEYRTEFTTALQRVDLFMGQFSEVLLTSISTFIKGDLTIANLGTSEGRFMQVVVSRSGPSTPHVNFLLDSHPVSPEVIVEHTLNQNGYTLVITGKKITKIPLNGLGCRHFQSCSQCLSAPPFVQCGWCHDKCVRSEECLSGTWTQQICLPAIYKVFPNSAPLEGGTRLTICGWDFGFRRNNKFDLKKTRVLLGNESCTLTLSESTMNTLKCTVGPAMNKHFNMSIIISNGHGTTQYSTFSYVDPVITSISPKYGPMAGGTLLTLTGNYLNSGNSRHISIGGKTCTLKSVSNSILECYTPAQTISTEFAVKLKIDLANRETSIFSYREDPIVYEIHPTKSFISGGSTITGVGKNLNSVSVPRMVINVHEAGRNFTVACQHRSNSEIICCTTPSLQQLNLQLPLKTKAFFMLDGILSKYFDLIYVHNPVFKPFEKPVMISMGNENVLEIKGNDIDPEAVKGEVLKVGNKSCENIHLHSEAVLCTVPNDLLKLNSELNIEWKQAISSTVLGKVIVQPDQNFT
Source text: The technology BRET, used in the step iii) of the process, is well known by the person skill in the art and will be detailed in the following examples. More particularly, BRET (Bioluminescence Resonance Energy Transfer) is a non-radiative energy transfer occurring between a bioluminescent donor (Renilla Luciferase (Rluc)) and a fluorescent acceptor, a mutant of GFP (Green Fluorescent Protein) or YFP (Yellow fluorescent protein). In the present case EYFP (Enhanced Yellow Fluorescent Protein) was used. The efficacy of transfer depends on the orientation and the distance between the donor and the acceptor. Then, the energy transfer can occur only if the two molecules are in close proximity (1-10 nm). This property is used to generate protein-protein interaction assays. Indeed, in order to study the interaction between two partners, the first one is genetically fused to the Renilla Luciferase and the second one to the yellow mutant of the GFP. Fusion proteins are generally, but not obligatory, expressed in mammalian cells. In presence of its membrane permeable substrate (coelenterazine), Rluc emits blue light. If the GFP mutant is closer than 10 nm from the Rluc, an energy transfer can occur and an additional yellow signal can be detected. The BRET signal is measured as the ratio between the light emitted by the acceptor and the light emitted by the donor. So the BRET signal will increase as the two fusion proteins are brought into proximity or if a conformational change bring Rluc and GFP mutant closer.
Then antibodies inhibiting at least 50% cell proliferation were evaluated as supernatants by BRET analysis on c-Met transfected cells. For that purpose, CHO stable cell lines expressing C-Met-Rluc or C-Met-Rluc and C-Met-K1100A-YFP were generated. Cells were distributed in white 96 well microplates in DMEM-F12/FBS 5% culture medium one or two days before BRET experiments. Cells were first cultured at 37° C. with CO2 5% in order to allow cell attachment to the plate. Cells were then starved with 200 μl DMEM/well overnight. Immediately prior to the experiment, DMEM was removed and cells quickly washed with PBS. Cells were incubated in PBS in the presence or absence of antibodies to be tested or reference compounds, 10 min at 37° C. prior to the addition of coelenterazine with or without HGF in a final volume of 50 μl. […]
BRET ratio has been defined previously [Angers et al., Proc. Natl. Acad. Sci. USA, 2000, 97:3684-3689] as: [(emission at 530 nm)−(emission at 485 nm)×Cf]/(emission at 485 nm), where Cf corresponds to (emission at 530 nm)/(emission at 485 nm) for cells expressing Rluc fusion protein alone in the same experimental conditions. […] For the sake of readability, results are expressed in milliBRET units (mBU); mBU corresponds to the BRET ratio multiplied by 1000.

SK-HEP-1 cells = test: Three-dimensional tubulogenesis assay; type: cell-based; conditions: SK-HEP-1, antibody 10 μg/ml; for inhibitory effect on tube formation in presence of HGF: HGF 100 ng/ml; for agonist effect on tube formation, alone: no HGF
Experimental: SK-HEP-1 cells were seeded at 1·10^4 cells/well in a 24-well plate in DMEM with 10% FCS/Matrigel (50/50) and incubated for 30 min before addition, at the same time, of HGF (100 ng/ml) and antibodies to be tested (10 μg/ml). After 7 days incubation, cells were assessed for tube formation visually. Each tested condition was tested as a triplicate and 3 independent experiments were performed.

| Molecule | agonist effect on invasion, added alone (A549 cells) | binding to SEMA domain (SEMA domain) | agonist activity on cell proliferation (BxPC3 cells) | inhibition of dimerization (c-Met) | inhibitory effect on tube formation in presence of HGF (SK-HEP-1 cells) | agonist effect on tube formation, alone (SK-HEP-1 cells) |
| --- | --- | --- | --- | --- | --- | --- |
| B1 | No agonist effect | able to bind | without any agonist activity | 69% | full inhibitory effect | No agonistic effect |
| B2 | No agonist effect | did not bind | without any agonist activity | 55% | full inhibitory effect | No agonistic effect |
| B3 | No agonist effect | did not bind | without any agonist activity | 32% | partial but significant inhibition | No agonistic effect |
